{"source": "paper PMC12810954", "about": "“Targeted computational design of an interleukin-7 superkine with enhanced folding efficiency and immunotherapeutic efficacy” (eLife, 2026)", "biological_target": "T1, recombinant murine IL-7 receptor alpha (mouse, UniProt P16872 21-239)", "T1 construct": "interleukin-7 receptor subunit alpha, mouse; Probably the extracellular domain (catalogue product); The SPR methods say only 'recombinant murine IL7Rα' without a supplier; also called IL7Rα; mIL-7Rα; source: bought: Sino Biological; not shown: polyhistidine, C-terminal, kept", "T1 sequence (looked up)": "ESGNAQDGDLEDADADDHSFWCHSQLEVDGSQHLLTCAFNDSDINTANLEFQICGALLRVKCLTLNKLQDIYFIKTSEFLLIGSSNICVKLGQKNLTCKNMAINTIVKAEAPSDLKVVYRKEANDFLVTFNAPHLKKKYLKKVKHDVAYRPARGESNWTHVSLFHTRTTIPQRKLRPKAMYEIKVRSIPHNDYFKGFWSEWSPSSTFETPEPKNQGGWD", "assay": "SPR; murine IL7Rα immobilised on a CM5 chip by amine coupling (Rmax below 30); threefold serial dilutions of WT-IL7 and Neo-7 variants in HBS-EP+ at 50 µL/min, association 180 s, dissociation 600 s; Biacore T200", "details": "both partners purified"}
{"binder": "recombinant WT-IL7, E. coli expressed and refolded (ligand, human, UniProt P13232 26-177, looked up, interleukin-7, human, wild type; The methods say only that a similar procedure as for Neo-7 was used) DCDIEGKDGKQYESVLMVSIDQLLDSMKEIGSNCLNNEFNFFKRHICDANKEGMFLFRAARKLRQFLKMNSTGDFDLHLLKVSEGTTILLNCTGQVKGRKPAALGEAQPTKSLEENKSLKEQKKLNDLCFLKRLLQEIKTCWNKILMGTKEH", "values": [{"measurement": "Kd", "result": 0.0134, "unit": "µM"}, {"measurement": "koff", "result": 0.0784, "unit": "s⁻¹"}, {"measurement": "kon", "result": "5.86e+06", "unit": "M⁻¹ s⁻¹"}]}
